Laboratory results: publication PMC3913770, “Characterization of New Polyol/H^+ Symporters in Debaryomyces hansenii” (PLoS ONE, 2014)

Experiments:
DhSyl1 = molecular target: T1, DhSyl1 (Debaryomyces hansenii, UniProt B5RT81); assay: inhibition of [U-14C] sorbitol uptake; format: cell-based; settings: 1.5 mM [U-14C] sorbitol, 20 mM mannitol
T1 construct: gene DEHA2C05896g; full-length ORF (649 aa) without stop, C-terminal GFP, plasmid pUG35, in S. cerevisiae YSH 1172 (strain MLY9); any CUG codon is read as Leu in the host
T1 sequence (B5RT81 1-649): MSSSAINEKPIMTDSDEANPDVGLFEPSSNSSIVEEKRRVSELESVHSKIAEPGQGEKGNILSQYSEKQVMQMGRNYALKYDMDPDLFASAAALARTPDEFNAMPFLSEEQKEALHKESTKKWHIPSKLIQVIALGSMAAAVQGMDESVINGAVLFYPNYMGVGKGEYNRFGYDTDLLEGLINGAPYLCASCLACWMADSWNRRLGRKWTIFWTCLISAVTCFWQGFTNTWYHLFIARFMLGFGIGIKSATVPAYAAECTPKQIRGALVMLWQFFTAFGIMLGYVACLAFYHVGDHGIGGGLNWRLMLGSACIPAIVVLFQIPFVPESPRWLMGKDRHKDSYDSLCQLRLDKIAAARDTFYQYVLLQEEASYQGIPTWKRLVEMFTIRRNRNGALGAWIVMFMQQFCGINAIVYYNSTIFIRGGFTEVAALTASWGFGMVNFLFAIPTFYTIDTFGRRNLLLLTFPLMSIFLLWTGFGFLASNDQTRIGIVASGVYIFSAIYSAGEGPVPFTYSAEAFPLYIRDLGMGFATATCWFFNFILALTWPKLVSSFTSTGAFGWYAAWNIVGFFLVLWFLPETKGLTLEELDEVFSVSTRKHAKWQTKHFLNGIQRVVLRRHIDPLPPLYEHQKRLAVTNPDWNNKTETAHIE

DhSgl1 = molecular target: T2, DhSgl1 (Debaryomyces hansenii, UniProt Q6BN62); assay: initial extracellular alkalinization (H+ symport) in unbuffered yeast cell suspension, Michaelis-Menten fit; format: cell-based; settings: pH 5, proton symport, one H+ per polyol assumed, maltose-grown S. cerevisiae cells
T2 construct: gene DEHA2E24310g; full-length ORF (626 aa) without stop, C-terminal GFP, plasmid pUG35, in S. cerevisiae YSH 1172 (strain MLY22)
Source text: initial extracellular alkalinization (H+ symport) in unbuffered yeast cell suspension, Michaelis-Menten fit on DhSgl1

[1] = substrate: OC[C@@H](O)[C@H](O)[C@H](O)[C@@H](O)CO; assay: as above; format: cell-based, Debaryomyces hansenii; settings: pH 5, proton symport, one H+ per polyol assumed, maltose-grown S. cerevisiae cells
Source text: (§1) initial extracellular alkalinization (H+ symport) in unbuffered yeast cell suspension, Michaelis-Menten fit on DhSyl1

[2] = substrate: OC[C@@H](O)[C@@H](O)[C@H](O)[C@@H](O)CO; assay: as above; format: cell-based, Debaryomyces hansenii; settings: pH 5, proton symport, one H+ per polyol assumed, maltose-grown S. cerevisiae cells
Source text: as §1

[3] = substrate: OC[C@@H](O)[C@@H](O)[C@@H](O)CO; assay: as above; format: cell-based, Debaryomyces hansenii; settings: pH 5, proton symport, one H+ per polyol assumed, maltose-grown S. cerevisiae cells
Source text: as §1

[4] = substrate: OC[C@@H](O)C(O)[C@H](O)CO; assay: as above; format: cell-based, Debaryomyces hansenii; settings: pH 5, proton symport, one H+ per polyol assumed, maltose-grown S. cerevisiae cells
Source text: as §1

[5] = substrate: OC[C@@H](O)[C@@H](O)[C@H](O)[C@H](O)CO; assay: as above; format: cell-based, Debaryomyces hansenii; settings: pH 5, proton symport, one H+ per polyol assumed, maltose-grown S. cerevisiae cells
Source text: as §1

[6] = substrate: O[C@H]1[C@H](O)[C@H](O)[C@@H](O)[C@H](O)[C@H]1O; assay: as above; format: cell-based, Debaryomyces hansenii; settings: pH 5, proton symport, one H+ per polyol assumed, maltose-grown S. cerevisiae cells
Source text: initial extracellular alkalinization (H+ symport) in unbuffered yeast cell suspension, Michaelis-Menten fit on DhSyi1

[7] = substrate: OC[C@@H](O)[C@@H](O)[C@H](O)[C@@H](O)CO; assay: as above; format: cell-based, Debaryomyces hansenii; settings: pH 5, proton symport, one H+ per polyol assumed, maltose-grown S. cerevisiae cells; remark: listed apart in the source
Source text: (§2) initial extracellular alkalinization (H+ symport) in unbuffered yeast cell suspension, Michaelis-Menten fit on DhSyl2

[8] = substrate: OC[C@@H](O)[C@@H](O)[C@@H](O)CO; assay: as above; format: cell-based, Debaryomyces hansenii; settings: pH 5, proton symport, one H+ per polyol assumed, maltose-grown S. cerevisiae cells; remark: listed apart in the source
Source text: as §2

[9] = substrate: OC[C@@H](O)C(O)[C@H](O)CO; assay: as above; format: cell-based, Debaryomyces hansenii; settings: pH 5, proton symport, one H+ per polyol assumed, maltose-grown S. cerevisiae cells; remark: listed apart in the source
Source text: as §2

[10] = substrate: OC[C@@H](O)[C@@H](O)[C@H](O)[C@H](O)CO; assay: as above; format: cell-based, Debaryomyces hansenii; settings: pH 5, proton symport, one H+ per polyol assumed, maltose-grown S. cerevisiae cells; remark: listed apart in the source
Source text: as §2

T2 sequence (Q6BN62 entry or part of it): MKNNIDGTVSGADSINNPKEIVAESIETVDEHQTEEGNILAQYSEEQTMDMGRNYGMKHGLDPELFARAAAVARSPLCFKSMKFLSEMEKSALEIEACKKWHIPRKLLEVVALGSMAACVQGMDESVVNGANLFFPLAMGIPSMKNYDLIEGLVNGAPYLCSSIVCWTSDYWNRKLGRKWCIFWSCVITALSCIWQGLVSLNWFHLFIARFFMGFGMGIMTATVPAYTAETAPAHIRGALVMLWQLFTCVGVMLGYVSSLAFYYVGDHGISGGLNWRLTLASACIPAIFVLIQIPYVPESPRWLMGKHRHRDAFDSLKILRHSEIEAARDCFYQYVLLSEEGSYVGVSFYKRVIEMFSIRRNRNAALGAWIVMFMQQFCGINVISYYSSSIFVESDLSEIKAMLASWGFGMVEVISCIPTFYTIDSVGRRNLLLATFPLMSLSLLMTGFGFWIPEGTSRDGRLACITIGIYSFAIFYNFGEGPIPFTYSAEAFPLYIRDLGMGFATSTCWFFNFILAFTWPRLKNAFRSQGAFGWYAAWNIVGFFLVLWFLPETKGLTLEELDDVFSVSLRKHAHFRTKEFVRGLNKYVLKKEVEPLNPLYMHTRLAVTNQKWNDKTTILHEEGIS

## OC[C@@H](O)[C@@H](O)[C@H](O)[C@H](O)CO [D-Mannitol]
DhSyl1
  % reduction of sorbitol uptake at 20 mM: 70%

## OC[C@@H](O)[C@H](O)[C@H](O)[C@@H](O)CO [D-Galactitol]
DhSgl1
  Km: 1.93 ± 0.77 mM

B1: DhSyl1 (Debaryomyces hansenii CBS767) (protein)
chain: T1 sequence (B5RT81 1-649)
notes: full-length ORF (649 aa) without stop, C-terminal GFP, plasmid pUG35, in S. cerevisiae YSH 1172 (strain MLY9); any CUG codon is read as Leu in the host
[1]
  Km: 12.33 ± 1.50 mM
[2]
  Km: 11.51 ± 2.50 mM
[3]
  Km: 11.44 ± 4.46 mM
[4]
  Km: 0.96 ± 0.32 mM
[5]
  Km: 0.30 ± 0.09 mM

B2: DhSyi1 (Debaryomyces hansenii CBS767) (protein)
chain: MATEDKELGVVITDVSKLSEKIEEQNNIISKGGSVDDYLYEKRPWWKVNYLVRLNFCIFLITLSSTNNGYDGSMLNGLQSVSYWPEKMGNPQGSVLGALSNGNVFGVVLSFVCASWLADKFGRWRCIFVGQTITILGSILQGVSTNYGFFLASRIILGFGVGIAGVSSPSLISELAYPTHRATATTFYNVCWYLGAIIAAWVTYGTLNIENDYSWRIPSYLQAALPCLQIAFFWMVPESPRYLINKDRISDAEKVLRKFHAGGETHERANDLVSFEIEEIQAALEIEKLSSNSRYSDFITMPTFRKRLFLAVFVAVIMQLSGNGLVSYYLNKVLNSIGITDPHEQLKINGCLMVYNLVISSVVASVAGRFKRRSMFLICTILMLVFYVIWTILSAINQQRNFEQKSLGNGVIAMIFFYYLAYDIGANGLPFLYITEIMPYSHRAKGMNIFTVSQNIIIIFNGFVNPIAMDAIEWKYYIVYCCILAVEVITVLFTFVETSAYTLEEVAKVFGDDPGQTLIHLSSAPPKPEVGHIETV
notes: full-length ORF (536 aa) without stop, C-terminal GFP, plasmid pUG35, in S. cerevisiae YSH 1172 (strain MLY23); any CUG codon is read as Leu in the host
[6]
  Km: 18.64 ± 9.23 mM

B3: DhSyl2 (Debaryomyces hansenii CBS767) (protein)
chain: MPSETNPEKPVALRSDNPHEENGLFEHSSNSSFNEKRRVSELESIHSKIAEPGQGEKGNILSQYSEKQVMQMGRNYALKYDLDPDLFARAAALARTPDDFNAMPFITEEEKQALHKEHTKKWHIPSKLIQVIALGSMAAAVQGMDESVINGALLFYPNYMGVGKGEYNRFGYDTDMIEGLINGAPYLCASCIACWMSDLWNRHLGRKWTIFWTCLISALTCFWQGFTNTWYHLFIARFMLGFGIGIKSATVPAYAAECTPKQIRGALVMLWQFFTAVGIMFGYVACLAFYHVGDHGIGGGLNWRLMLGSACIPAIIVLFQIPFVPESPRWLMGKDRHKDSYDSLCQLRLDKIAAARDTFYQYVLLQEEASYQGIPTWKRLVEMFTIRRNRNGALGAWIVMFMQQFCGINAIVYYNSTIFIQGGFTEVDALTASWGFGMVNFLFAIPTFYTIDTFGRRNLLLFTFPLMALFLIWTGLGFVAEDGTKTQTGIVASGVYIFSAIYSAGEGPVPFTYSAEAFPLYIRDIGMGFATATCWFFNFILALTWPKLVSSFGRTGAFMWYAAWNIAGFFMVLWFLPETKGLTLEELDEVFSVSTRKHAIYQTKSILNSFQRVVLRRHIDPLPPLYEHQKRLAVTNPDWNNKTETAHIE
notes: full-length ORF (649 aa) without stop, C-terminal GFP, plasmid pUG35, in S. cerevisiae YSH 1172 (strain MLY12); any CUG codon is read as Leu in the host
[7]
  Km: 13.82 ± 2.12 mM
[8]
  Km: 18.31 ± 3.23 mM
[9]
  Km: 0.46 ± 0.21 mM
[10]
  Km: 0.93 ± 0.16 mM
